Results as given in the supplement of paper PMC7877785.
± gives the uncertainty stated by the source.

Assay: self-splicing fitness, log relative to wild type (ln ratio); higher = more splicing; Tetrahymena group I intron in knt gene, E. coli kanamycin selection, DiMSum; sequences stand for … in CUCUCU…GGAGGGAAAAGUUAUCAGGCAUGCACCUGGUAGCUAGUCUUUAAACCAAUAGAUUGCAUCGGUUUAAAAGGCAAGACCGUCAAAUUGCGGGAAAGGGGUCAACAGCCGUUCAGUACCAAGUCUCAGGGGAAACUUUGAGAUGGCCUUGCAAAGGGUAUGGUAAUAAGCUGACGGACAUGGUCCUAACCACGCAGCCAAGUCCUAAGUCAACAGAUCUUCUGUUGAUAUGGAUGCAGUUCACAGACUAAAUGUCGGUCGGGGAAGAUGUAUUCUUCUCAUAAGAUAUAGUCGGACCUCUCCUUAAUGGGAGCUAGCGGAUGAAGUGAUGCAACACUGGAGCCGCUGGGAACUAAUUUGUAUGCGAAAGUAUAUUGAUUAGUUUUGGAGUACUCGUGGUCG
Procedure, shortened: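 Library with all eight P1ex-region intron nucleotides randomised, intron inside the knt kanamycin-resistance gene on pET-22b(+), in E. coli BL21(DE3). Cells grew overnight at 37°C or 30°C on LB agar with or without 25 μg/mL kanamycin (plus 100 μg/mL carbenicillin, 50 μM IPTG, 0.2% rhamnose), in six replicate transformations. Pooled colonies were amplicon-sequenced on Illumina HiSeq 2500. DiMSum fitness is the error-weighted combination of wild-type-normalised replicate fold changes, kanamycin versus none.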

Sequence | self-splicing fitness (ln) (37 °C) | self-splicing fitness (ln) (30 °C)
UAGGAGCAAUAUUACGUUAC | -2.08 ± 0.32 | –
UAGUAGCAAUAUUACGACAG | -1.18 ± 0.37 | -2.01 ± 0.3
UAGUAGCAAUAUUACGACCU | 0.242 ± 0.11 | -0.902 ± 0.11
UAGUAGCAAUAUUACGCAGA | -2.99 ± 0.18 | -2.43 ± 0.23
UAGUAGCAAUAUUACGCAUA | -1.69 ± 0.11 | -1.58 ± 0.11
UAGUAGCAAUAUUACGCCCU | -0.583 ± 0.2 | -1.34 ± 0.21
UAGUAGCAAUAUUACGGCGG | -0.639 ± 0.11 | -0.668 ± 0.085
UAGUAGCAAUAUUACGGCGU | -1.2 ± 0.17 | -2.15 ± 0.17
UAGUAGCAAUAUUACGGGAG | -2.3 ± 0.45 | -3.69 ± 0.4
UAGUAGCAAUAUUACGGUGG | -2.09 ± 0.2 | -3.44 ± 0.27
UAGUAGCAAUAUUACGUCUA | 0.659 ± 0.1 | 0.265 ± 0.095
UAGUAGCAAUAUUACGUGCC | -2.11 ± 0.27 | -2.98 ± 0.25
UAUAAGCAAUAUUACGCAAG | 0.725 ± 0.17 | -1.86 ± 0.23
UAUAAGCAAUAUUACGCAGU | -1.68 ± 0.15 | -3.27 ± 0.2
UAUAAGCAAUAUUACGCAUG | -0.154 ± 0.13 | -0.714 ± 0.12
UAUAAGCAAUAUUACGCCAG | -0.728 ± 0.27 | -0.478 ± 0.21
UAUAAGCAAUAUUACGCGGC | -2.92 ± 0.47 | -3.53 ± 0.35
UAUAAGCAAUAUUACGCGUC | -1.14 ± 0.23 | -3.23 ± 0.28
UAUAAGCAAUAUUACGCUGU | -3.32 ± 0.35 | -2.45 ± 0.2
UAUAAGCAAUAUUACGGAGU | -1.46 ± 0.2 | -3.46 ± 0.32
UAUAAGCAAUAUUACGGAUG | -0.286 ± 0.083 | -0.677 ± 0.055
UAUAAGCAAUAUUACGGCGA | -0.427 ± 0.11 | -0.0284 ± 0.1
UAUAAGCAAUAUUACGGCGG | -0.0854 ± 0.25 | 0.309 ± 0.2
UAUAAGCAAUAUUACGGGCG | 0.339 ± 0.17 | -0.413 ± 0.14
UAUAAGCAAUAUUACGGUGA | -0.726 ± 0.13 | -1 ± 0.13

Sequence | self-splicing fitness (ln) (37 °C) | self-splicing fitness (ln) (30 °C)
UAUAAGCAAUAUUACGGUGU | -1.34 ± 0.18 | -2.97 ± 0.26
UAUAAGCAAUAUUACGGUUA | 0.311 ± 0.095 | 0.0292 ± 0.084
UAUAAGCAAUAUUACGUAAC | 0.142 ± 0.22 | -3.16 ± 0.27
UAUAAGCAAUAUUACGUGCG | -0.00615 ± 0.17 | -0.452 ± 0.11
UAUAAGCAAUAUUACGUUAU | -2.3 ± 0.28 | -2.58 ± 0.19
UAUCAGCAAUAUUACGACGA | -0.425 ± 0.11 | -0.537 ± 0.1
UAUCAGCAAUAUUACGACGU | -0.199 ± 0.11 | -1.22 ± 0.094
UAUCAGCAAUAUUACGAGAU | -2.21 ± 0.23 | -3.27 ± 0.16
UAUCAGCAAUAUUACGAGGG | -1.61 ± 0.19 | -2.76 ± 0.18
UAUCAGCAAUAUUACGAUAA | -0.065 ± 0.092 | -0.166 ± 0.081
UAUCAGCAAUAUUACGAUUA | 0.233 ± 0.087 | 0.023 ± 0.072
UAUCAGCAAUAUUACGCAGC | -1.53 ± 0.18 | -2.17 ± 0.19
UAUCAGCAAUAUUACGCCCA | 0.008 ± 0.18 | 0.297 ± 0.18
UAUCAGCAAUAUUACGCCGU | 0.487 ± 0.22 | -1.43 ± 0.24
UAUCAGCAAUAUUACGCCUA | 0.701 ± 0.13 | 0.206 ± 0.11
UAUCAGCAAUAUUACGCGAC | -2.3 ± 0.33 | -3.07 ± 0.37
UAUCAGCAAUAUUACGCGUC | -0.926 ± 0.12 | -2.53 ± 0.11
UAUCAGCAAUAUUACGGAAC | – | -1.44 ± 0.21
UAUCAGCAAUAUUACGGAAU | -1.27 ± 0.12 | -2.23 ± 0.1
UAUCAGCAAUAUUACGGACC | -1.39 ± 0.15 | -2.13 ± 0.13
UAUCAGCAAUAUUACGGAUG | 0.0808 ± 0.091 | -1.11 ± 0.084
UAUCAGCAAUAUUACGGCAG | 0.0916 ± 0.089 | -0.148 ± 0.075
UAUCAGCAAUAUUACGGCCC | -1.05 ± 0.39 | -2.13 ± 0.28
UAUCAGCAAUAUUACGGCGU | -0.578 ± 0.087 | -0.864 ± 0.087
UAUCAGCAAUAUUACGGCUC | -0.563 ± 0.18 | -1.86 ± 0.17

Sequence | self-splicing fitness (ln) (37 °C) | self-splicing fitness (ln) (30 °C)
UAUCAGCAAUAUUACGGCUU | -0.106 ± 0.11 | -1.03 ± 0.075
UAUCAGCAAUAUUACGGGCU | -2.23 ± 0.3 | -2.72 ± 0.21
UAUCAGCAAUAUUACGGUCA | 0.0755 ± 0.071 | -0.435 ± 0.057
UAUCAGCAAUAUUACGUAGG | -1.09 ± 0.088 | -2.1 ± 0.097
UAUCAGCAAUAUUACGUAUC | -0.822 ± 0.096 | -2.11 ± 0.08
UAUCAGCAAUAUUACGUAUG | 0.475 ± 0.058 | -0.321 ± 0.042
UAUCAGCAAUAUUACGUCGA | 0.104 ± 0.12 | -1.16 ± 0.1
UAUCAGCAAUAUUACGUGCU | -2.1 ± 0.16 | -3.64 ± 0.21
UAUCAGCAAUAUUACGUGGA | -0.739 ± 0.099 | -1.05 ± 0.098
UAUCAGCAAUAUUACGUGGU | -0.774 ± 0.13 | -3.97 ± 0.2
UAUCAGCAAUAUUACGUUGC | -2.37 ± 0.15 | -3.53 ± 0.18
UAUGAGCAAUAUUACGAAAG | – | -2.55 ± 0.39
UAUGAGCAAUAUUACGAGCA | -2.09 ± 0.31 | -2.47 ± 0.17
UAUGAGCAAUAUUACGAGUA | -0.862 ± 0.18 | -2.16 ± 0.19
UAUGAGCAAUAUUACGAUCA | -1.27 ± 0.14 | -2.24 ± 0.16
UAUGAGCAAUAUUACGAUCU | -2 ± 0.31 | -1.76 ± 0.23
UAUGAGCAAUAUUACGAUGA | -1.68 ± 0.16 | -1.41 ± 0.12
UAUGAGCAAUAUUACGAUGU | -3.62 ± 0.46 | -4.02 ± 0.37
UAUGAGCAAUAUUACGCACA | -0.282 ± 0.21 | -0.923 ± 0.21
UAUGAGCAAUAUUACGCGGU | -2.68 ± 0.3 | -3.41 ± 0.21
UAUGAGCAAUAUUACGGACU | -2.46 ± 0.26 | -3.55 ± 0.4
UAUGAGCAAUAUUACGGAGG | -2.53 ± 0.29 | -3.2 ± 0.17
UAUGAGCAAUAUUACGGUAG | -1.88 ± 0.36 | -1.79 ± 0.37
UAUGAGCAAUAUUACGUCAC | -2.26 ± 0.49 | -4.15 ± 0.46
UAUGAGCAAUAUUACGUUCG | -0.169 ± 0.12 | -1.45 ± 0.091

Sequence | self-splicing fitness (ln) (37 °C) | self-splicing fitness (ln) (30 °C)
UAUUAGCAAUAUUACGAACA | 0.101 ± 0.14 | -0.315 ± 0.16
UAUUAGCAAUAUUACGAACG | 0.194 ± 0.14 | -0.156 ± 0.12
UAUUAGCAAUAUUACGAACU | -0.806 ± 0.13 | -1.27 ± 0.11
UAUUAGCAAUAUUACGAGAA | -2.92 ± 0.47 | –
UAUUAGCAAUAUUACGAGCU | 0.924 ± 0.21 | -2.63 ± 0.26
UAUUAGCAAUAUUACGAGGA | -1.54 ± 0.18 | -2.33 ± 0.19
UAUUAGCAAUAUUACGAGUG | 0.196 ± 0.087 | -0.139 ± 0.069
UAUUAGCAAUAUUACGAUCG | 0.607 ± 0.18 | -0.211 ± 0.12
UAUUAGCAAUAUUACGCAAA | -1.83 ± 0.27 | -1.67 ± 0.3
UAUUAGCAAUAUUACGCAUG | -0.197 ± 0.11 | -0.961 ± 0.081
UAUUAGCAAUAUUACGCCCA | -0.366 ± 0.3 | -0.378 ± 0.23
UAUUAGCAAUAUUACGCGCG | -0.528 ± 0.17 | -0.142 ± 0.17
UAUUAGCAAUAUUACGCGCU | -0.558 ± 0.18 | -0.731 ± 0.15
UAUUAGCAAUAUUACGCUCG | 0.237 ± 0.2 | -0.476 ± 0.17
UAUUAGCAAUAUUACGGCCG | 0.135 ± 0.31 | -0.0472 ± 0.19
UAUUAGCAAUAUUACGGGCG | 0.185 ± 0.083 | -0.882 ± 0.076
UAUUAGCAAUAUUACGGUGA | -1.33 ± 0.11 | -1.92 ± 0.12
UAUUAGCAAUAUUACGUACA | -0.493 ± 0.23 | -0.773 ± 0.22
UAUUAGCAAUAUUACGUAGU | -2.47 ± 0.35 | -2.56 ± 0.26
UAUUAGCAAUAUUACGUGAU | -1.99 ± 0.18 | -2.82 ± 0.17
UAUUAGCAAUAUUACGUGGC | -1.84 ± 0.39 | –
UAUUAGCAAUAUUACGUGUC | – | -3.34 ± 0.39
